We go through three molecules from article PMC10878280 (Journal of Virology, 2024).

B1: C05 IgG (antibody, V domains shown)
VH: QVQLQESGGGLVQPGESLRLSCVGSGSSFGESTLSYYAVSWVRQAPGKGLEWLSIINAGGGDIDYADSVEGRFTISRDNSKETLYLQMTNLRVEDTGVYYCAKHMSMQQVVSAGWERADLVGDAFDVWGQGTMVTVSS
VL: DIQLTQSPSSLSASVGDRVTLTCQASQDIRKFLNWYQQKPGKGPKLLIYDASNLQRGVPSRFSGGGSGTDFTLIISSLQPEDVGTYYCQQYDGLPFTFGGGTKVVIK
notes: not shown: ybbR, C-terminal, kept; copies: 2 + 2
B2: FI6v3 IgG (antibody, V domains shown)
VH: QVQLVESGGGVVQPGRSLRLSCAASGFTFSTYAMHWVRQAPGKGLEWVAVISYDANYKYYADSVKGRFTISRDNSKNTLYLQMNSLRAEDTAVYYCAKDSQLRSLLYFEWLSQGYFDYWGQGTLVTVSS
VL: not shown
notes: as for B1
B3: S139\1 IgG (antibody, V domains shown)
VH: QVQLQQSGTELKKPGASVKISCKATGYTFSSYWIEWIKQRPGHGLEWIGEILPEIGMTNYNENFKGKATFTANTSSNTVYMQLSSLTSEDSAVYYCARPYDYSWFAYWGQGTLVTVSA
VL: DIVMTQSQKFMSTSVGDRVSVTCKASQNVDTNVAWYQEKPGQSPKTLIYSASNRYSGVPDRFTGSASGTDFTLTITNVQSEDLAEYFCQQYNSYPYTFGGGTKLEIK
notes: as for B1

The test concerns the target T1, hemagglutinin (HA) of A/WSN/1933, on transfected HEK-293T cells (Influenza A virus A/WSN/1933 (H1N1), UniProt P03454).
T1 construct: source: HEK-293T, transfected with HA-expressing plasmid, on cells
The test can be described thus: fluorescence imaging with FRAP of labelled antibody on transfected cells. The following applies: one partner purified.
As for B1, the binding result is “binds”. For B2, the binding result is on record as “binds”.

For B3, the binding result is given as “binds”.
